Reference: the RNAGym collection of RNA variant scans (doi:10.1093/molbev/msab373)

B1: Azoarcus group I ribozyme (parent)
chain: GUGCCUUGCGCCGGGAAACCACGCAAGGGAUGGUGUCAAAUUCGGCGAAACCUAAGCGCCCGCCCGGGCGUAUGGCAACGCCGAGCCAAGCUUCGGCGCCUGCGCCGAUGAAGGUGUAGAGACUAGACGGCACCCACCUAAGGCAAACGCUAUGGUGAAGGCAUAGUCCAGGGAGUGGCGAAAGUCACACAAACCGG

Variants of: B1
Assay: reverse-splicing fitness (ratio to wild type); higher = more active; in vitro selection; Mg2+ level not given
Method in brief: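 An in vitro group I ribozyme library with randomized positions was T7-transcribed and gel-purified. In triplicate, 10 pmol RNA in EPPS pH 7.5 was reacted with 50 pmoles of a 30-nt RNA substrate for 1 h at 37 °C across several added MgCl2 levels (1–48 mM), then stopped with EDTA. Products were reverse transcribed from a substrate-complementary primer, PCR-amplified and sequenced (HiSeq 4000). Fitness is a variant's read proportion after selection over that before, normalised to wild type.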

Question: With C82A A111C A120U C150A C169U as the variant, how does the reverse-splicing fitness read?
Answer: 0.00635

Question: Which reverse-splicing fitness does the source give for C82A A111C A120U A145C C150A C169A here?
Answer: 0.00282

Question: For C82A A111C A120U A145C C150A C169G, which reverse-splicing fitness is on record?
Answer: 0.00308

Question: With C82A A111C A120U A145C C150A C169U as the variant, how does the reverse-splicing fitness read?
Answer: 0.00355

Question: Which reverse-splicing fitness does the source give for C82A A111C A120U A145G U176G here?
Answer: 0.0035

Question: Which reverse-splicing fitness does the source give for C82A A111C A120U A145G U176C here?
Answer: 0.0109

Question: For C82A A111C A120U A145G U176A, which reverse-splicing fitness is on record?
Answer: 0.00698

Question: With C82A A111C A120U A145U C169U as the variant, how does the reverse-splicing fitness read?
Answer: 0.00402

Question: For C82A A111C A120U A145U C169A, which reverse-splicing fitness is on record?
Answer: 0.00297

Question: For C82A A111C A120U A145U C169G, which reverse-splicing fitness is on record?
Answer: 0.00439

Question: For C82A A111C A120U C150G U176A, which reverse-splicing fitness is on record?
Answer: 0.00392

Question: With C82A A111C A120U C150G U176G as the variant, how does the reverse-splicing fitness read?
Answer: 0.00249

Question: Which reverse-splicing fitness does the source give for C82A A111C A120U C150G U176C here?
Answer: 0.00623

Question: For C82A A111C A120U C150G C169G U176G, which reverse-splicing fitness is on record?
Answer: 0.00279

Question: Which reverse-splicing fitness does the source give for C82A A111C A120U C150G C169G U176A here?
Answer: 0.00439

Question: For C82A A111C A120U C150G C169G U176C, which reverse-splicing fitness is on record?
Answer: 0.00343

Question: With C82A A111C A120U C150A C169U U176C as the variant, how does the reverse-splicing fitness read?
Answer: 0.00458

Question: Which reverse-splicing fitness does the source give for C82A A111C A120U C150A C169U U176G here?
Answer: 0.00284

Question: For C82A A111C A120U C150A C169U U176A, which reverse-splicing fitness is on record?
Answer: 0.00806

Question: Which reverse-splicing fitness does the source give for C82A A111C A120U A145U C150G C169U U176A here?
Answer: 0.0031

Question: With C82A A111C A120U A145U C150G C169U U176C as the variant, how does the reverse-splicing fitness read?
Answer: 0.00305

Question: For C82A A111C A120U A145U C150G C169U U176G, which reverse-splicing fitness is on record?
Answer: 0.0029

Question: For C82A A111C A120U A145C C150U C169U U176A, which reverse-splicing fitness is on record?
Answer: 0.00329

Question: Which reverse-splicing fitness does the source give for C82A A111C A120U A145C C150U C169U U176G here?
Answer: 0.00284

Question: For C82A A111C A120U A145C C150U C169U U176C, which reverse-splicing fitness is on record?
Answer: 0.00286

Question: Which reverse-splicing fitness does the source give for C82A A111C A120U C169A here?
Answer: 0.0037

Question: With C82A A111C A120G C150U C169U U176G as the variant, how does the reverse-splicing fitness read?
Answer: 0.00631

Question: With C82A A111C A120G C150U C169U U176C as the variant, how does the reverse-splicing fitness read?
Answer: 0.0155

Question: Which reverse-splicing fitness does the source give for C82A A111C A120G C150U C169U U176A here?
Answer: 0.0157

Question: With C82A A111C A120G C150U C169A as the variant, how does the reverse-splicing fitness read?
Answer: 0.00973

Question: With C82A A111C A120G C150U C169U as the variant, how does the reverse-splicing fitness read?
Answer: 0.00806

Question: Which reverse-splicing fitness does the source give for C82A A111C A120G C150U C169G here?
Answer: 0.00891

Question: With C82A A111C A120U A145U C169G U176G as the variant, how does the reverse-splicing fitness read?
Answer: 0.00259

Question: With C82A A111C A120U A145U C169G U176A as the variant, how does the reverse-splicing fitness read?
Answer: 0.00336

Question: Which reverse-splicing fitness does the source give for C82A A111C A120U A145U C169G U176C here?
Answer: 0.00308

Question: With C82A A111C A120G C150G C169U U176A as the variant, how does the reverse-splicing fitness read?
Answer: 0.00801

Question: For C82A A111C A120G C150G C169U U176C, which reverse-splicing fitness is on record?
Answer: 0.012

Question: Which reverse-splicing fitness does the source give for C82A A111C A120G C150G C169U U176G here?
Answer: 0.00579

Question: With C82A A111C A120G C150G C169G U176A as the variant, how does the reverse-splicing fitness read?
Answer: 0.00664

Question: With C82A A111C A120G C150G C169G U176C as the variant, how does the reverse-splicing fitness read?
Answer: 0.00493

Question: With C82A A111C A120G C150G C169G U176G as the variant, how does the reverse-splicing fitness read?
Answer: 0.00538

Question: With C82A A111C A120U C150U C169G U176C as the variant, how does the reverse-splicing fitness read?
Answer: 0.00483

Question: Which reverse-splicing fitness does the source give for C82A A111C A120U C150U C169G U176G here?
Answer: 0.00288

Question: For C82A A111C A120U C150U C169G U176A, which reverse-splicing fitness is on record?
Answer: 0.00669

Question: Which reverse-splicing fitness does the source give for C82A A111C A120U A145U C150G C169A here?
Answer: 0.00497

Question: For C82A A111C A120U A145U C150G C169G, which reverse-splicing fitness is on record?
Answer: 0.00401

Question: With C82A A111C A120U A145U C150G C169U as the variant, how does the reverse-splicing fitness read?
Answer: 0.00325

Question: Which reverse-splicing fitness does the source give for C82A A111C A120U A145G C150G C169U U176C here?
Answer: 0.00842

Question: For C82A A111C A120U A145G C150G C169U U176A, which reverse-splicing fitness is on record?
Answer: 0.00855

Question: Which reverse-splicing fitness does the source give for C82A A111C A120U A145G C150G C169U U176G here?
Answer: 0.00484

Question: With C82A A111C A120G A145U C150U C169A U176G as the variant, how does the reverse-splicing fitness read?
Answer: 0.00604

Question: For C82A A111C A120U, which reverse-splicing fitness is on record?
Answer: 0.0221

Question: With C82A A111C A120G C169U U176A as the variant, how does the reverse-splicing fitness read?
Answer: 0.0144

Question: For C82A A111C A120G C169U U176G, which reverse-splicing fitness is on record?
Answer: 0.00559

Question: Which reverse-splicing fitness does the source give for C82A A111C A120G C169U U176C here?
Answer: 0.0145

Question: For C82A A111C A120U A145U C150U U176C, which reverse-splicing fitness is on record?
Answer: 0.00936

Question: With C82A A111C A120U A145U C150U U176A as the variant, how does the reverse-splicing fitness read?
Answer: 0.00713

Question: With C82A A111C A120U A145U C150U U176G as the variant, how does the reverse-splicing fitness read?
Answer: 0.00353

Question: Which reverse-splicing fitness does the source give for C82A A111C A120U A145G C150G U176G here?
Answer: 0.00449

Question: With C82A A111C A120U A145G C150G U176A as the variant, how does the reverse-splicing fitness read?
Answer: 0.00763

Question: Which reverse-splicing fitness does the source give for C82A A111C A120U A145G C150G U176C here?
Answer: 0.00851

Question: With C82A A111C A120G C150U U176A as the variant, how does the reverse-splicing fitness read?
Answer: 0.0116

Question: With C82A A111C A120G C150U U176G as the variant, how does the reverse-splicing fitness read?
Answer: 0.00673

Question: Which reverse-splicing fitness does the source give for C82A A111C A120G C150U U176C here?
Answer: 0.02

Question: With C82A A111C A120U C150U C169A as the variant, how does the reverse-splicing fitness read?
Answer: 0.0052

Question: With C82A A111C A120U C150U C169U as the variant, how does the reverse-splicing fitness read?
Answer: 0.00638

Question: For C82A A111C A120U C150U C169G, which reverse-splicing fitness is on record?
Answer: 0.00537

Question: With C82A A111C A120G A145U C169U as the variant, how does the reverse-splicing fitness read?
Answer: 0.00891

Question: Which reverse-splicing fitness does the source give for C82A A111C A120G A145U C169A here?
Answer: 0.00893

Question: Which reverse-splicing fitness does the source give for C82A A111C A120G A145U C169G here?
Answer: 0.00868

Question: With C82A A111C A120U C150G as the variant, how does the reverse-splicing fitness read?
Answer: 0.00737

Question: For C82A A111C A120U C150A, which reverse-splicing fitness is on record?
Answer: 0.00696

Question: For C82A A111C A120U C150U, which reverse-splicing fitness is on record?
Answer: 0.0167

Question: Which reverse-splicing fitness does the source give for C82A A111C A120U A145G C150A C169G here?
Answer: 0.00577

Question: Which reverse-splicing fitness does the source give for C82A A111C A120U A145G C150A C169A here?
Answer: 0.00708

Question: For C82A A111C A120U A145G C150A C169U, which reverse-splicing fitness is on record?
Answer: 0.00559

Question: With C82A A111C A120G C150G C169G as the variant, how does the reverse-splicing fitness read?
Answer: 0.00748

Question: Which reverse-splicing fitness does the source give for C82A A111C A120G C150G C169A here?
Answer: 0.0097

Question: For C82A A111C A120G C150G C169U, which reverse-splicing fitness is on record?
Answer: 0.00833

Question: Which reverse-splicing fitness does the source give for C82A A111C A120U C150A C169A U176A here?
Answer: 0.00546

Question: Which reverse-splicing fitness does the source give for C82A A111C A120U C150A C169A U176G here?
Answer: 0.00277

Question: Which reverse-splicing fitness does the source give for C82A A111C A120U C150A C169A U176C here?
Answer: 0.00418

Question: For C82A A111C A120U A145C C150U C169G U176G, which reverse-splicing fitness is on record?
Answer: 0.00286

Question: Which reverse-splicing fitness does the source give for C82A A111C A120U A145C C150U C169G U176C here?
Answer: 0.00264
